The results in this text go back to patent US20240288416A1 (RIJKSUNIVERSITEIT GRONINGEN, published 2024).

For the assay, the target named is T1, artificial PA28-nanopore.
T1 construct: also called PA-nanopore; PA nanopore
Put plainly: single-channel electrical recording in a planar lipid bilayer, 1 M NaCl.

B1: 20S proteasome from Thermoplasma acidophilum (enzyme)
chain 1: MQQGQMAYDRAITVFSPDGRLFQVEYAREAVKKGSTALGMKFANGVLLISDKKVRSRLIEQNSIEKIQLIDDYVAAVTSGLVADARVLVDFARISAQQEKVTYGSLVNIENLVKRVADQMQQYTQYGGVRPYGVSLIFAGIDQIGPRLFDCDPAGTINEYKATAIGSGKDAVVSFLEREYKENLPEKEAVTLGIKALKSSLEEGEELKAPEIASITVGNKYRIYDQEEVKKFL
chain 2: TTTVGITLKDAVIMATERRVTMENFIMHKNGKKLFQIDTYTGMTIAGLVGDAQVLVRYMKAELELYRLQRRVNMPIEAVATLLSNMLNQVKYMPYMVQLLVGGIDTAPHVFSIDAAGGSVEDIYASTGSGSPFVYGVLESQYSEKMTVDEGVDLVIRAISAAKQRDSASGGMIDVAVITRKDGYVQLPTDQIESRIRKLGLIL
notes: also called the proteasome; T. acidophilum proteasome
Take B1: the binding result is recorded as “no binding”.
